# Test results taken from US20230398228A1, “ERIBULIN-BASED ANTIBODY-DRUG CONJUGATES AND METHODS OF USE” (EISAI R&D MANAGEMENT CO., LTD., priority 2016, published 2023).
# Where two headings read alike, the source gives them in different places.
# Experiments:
# [1] = system: A431 cells; assay: Crystal Violet cytotoxicity assay (Example 4), A431 (parental); type: cell-based, human; details: mean of replicate experiments, read-out: Cytotoxicity IC50 (nM), A431 (FR^neg, MSLN^neg)
# Procedure: Test reagents were serial diluted 1:3 in 2 mL deep-well dilution plates, starting at 200 nM (10 dilutions total). […] Medium was then discarded. […] Plates were read at 570 nm. Data was analyzed using GraphPad Prism 6. […]
# MAL-PEG2-Val-Cit-PAB-eribulin (ER-001159569) was conjugated to eight different anti-human mesothelin antibodies (Table 1). Binding affinities of the parental antibodies were determined by BIAcore analysis, as described above in section 1.6.1. Aggregation levels for all anti-human mesothelin ADCs were determined by SEC-HPLC and the DAR was analyzed using HIC-HPLC. In vitro potency was evaluated using a Crystal Violet cell-based cytotoxicity assay in A3 (A431 stabily transfected with human mesothelin (MSLN), MSLN^hi), OVCAR3 (human ovarian, MSLN^hi), HEC-251 (human endometroid, MSLN^med), H226 (human lung squamous cell mesothelioma, MSLN^lo), and A431 parental (MSLN^neg) cells.
# [2] = biological target: Recombinant human folate receptor alpha (Homo sapiens, UniProt P15328); assay: ELISA, folate receptor alpha; type: binding; details: MORAb-003 and its ADCs
# Procedure: Coating solution was discarded and the plates were washed three times using 1×PBS with 0.05% Tween-20 (PBST) buffer. Plates were blocked in 300 μL blocking buffer (1% BSA in PBST) at room temperature for 2 hours on an orbital shaker. […] Blocking buffer was discarded and 100 μL/well of diluted antibody was added to the plates. Plates were incubated at room temperature for 2 hours on an orbital shaker. Antibody solution was discarded and plates were washed three times using PBST. 100 μL/well of goat-anti-human IgG (H+L)-HRP (1:10,000 dilution in blocking buffer) solution was added to the plates, and plates were incubated at room temperature for 1 hour on an orbital shaker. Secondary antibody solution was discarded and plates were washed three times using PBST. 100 μL/well of QuantaBlu fluorogenic peroxidase substrate working solution (Thermo, Cat No. 15169) was added to the plates, and plates were incubated at room temperature for 30 min. Fluorescence was read at excitation 325 nm/emission 420 nm using a SpectraMax M5 (Molecular Devices). Data was analyzed using SoftMaxPro 5.4.2 software with 4-parameter fitting.
# [3] = system: NCI-H2110 cells; assay: Crystal Violet cytotoxicity assay (Example 4), NCI-H2110; type: cell-based, human; details: mean of replicate experiments, read-out: Cytotoxicity IC50 (nM), NCI-H2110 (FR^med, MSLN^med)
# Procedure: (§1) Test reagents were serial diluted 1:3 in 2 mL deep-well dilution plates, starting at 200 nM (10 dilutions total). […] Medium was then discarded. […] Plates were read at 570 nm. Data was analyzed using GraphPad Prism 6.
# [4] = system: IGROV1 cells; assay: Crystal Violet cytotoxicity assay (Example 4), IGROV1; type: cell-based, human; details: mean of replicate experiments, read-out: Cytotoxicity IC50 (nM), IGROV1 (FR^hi, MSLN^neg)
# Procedure: as §1
# [5] = SEC-HPLC aggregation analysis; type: physicochemical
# Procedure: The antibody aggregation was analyzed by size-exclusion, high-performance liquid chromatography (SEC-HPLC) using an Agilent 1100. The mAb was diluted to 1 mg/mL in DPBS. The antibody (20 μL) was injected onto a TSKgel® SuperSW guard column (4.6 mm×3.5 cm, 4 μm pore size, Tosoh Bioscience), followed by a TSKgel® SuperSW3000 column (4.6 mm×30 cm, 4 μm pore size), eluted from the column with 0.1 M sodium phosphate containing 0.15 M NaCl and 0.05% NaN3, at pH 7.4, at a flow rate of 0.3 mL/min for 20 min. All data were analyzed using Agilent ChemStation software. Percent aggregation was calculated as [PAaggregate/PAtotal]*100, where PA=integrated peak area.
# ADC was diluted to 1 mg/mL in DPBS. ADC (10 μL) was then injected onto an Advanced SEC 300A guard column (4.6 mm×3.5 cm, 2.7 μm pore size, Agilent), followed by a AdvancedBio 300A column (4.6 mm×30 cm, 2.7 μm pore size). ADC was eluted from the column with 0.1 M sodium phosphate containing 0.15 M NaCl and 5% IPA, pH 7.4 at a flow rate of 0.25 mL/min for 28 min. All data were analyzed using Agilent ChemStation software. Percent aggregation was calculated as [PAaggregate/PAtotal]*100, where PA=integrated peak area.
# [6] = system: IGROV1 cells; assay: Serum stability assay, cytotoxicity readout on IGROV1
# Procedure: (§2) Following incubation, samples were frozen and stored at −20° C. until evaluation in cytotoxicity and binding assays. For cytotoxicity analyses, samples were evaluated on IGROV1 and SJSA-1 cells, as detailed in section 1.4.1. For binding assessment, samples were evaluated using a solution-based MSD ECL assay.
# (§3) ER-001161319 is maytansine-based ADC comprising the same cleavable linker as VCP-eribulin, maleimido-PEG2-Val-Cit-pAB. PBS and serum controls were included to correct for any serum effects on assay performance.
# [7] = system: IGROV1 cells; assay: Crystal Violet cytotoxicity assay (Examples 1 and 2), IGROV1
# Procedure: (§4) Typically, test reagents were serial diluted 1:4 in 2 mL deep-well dilution plates, starting at 1 μM (10 dilutions total). 100 μL of diluted samples were added to the cell plates (starting concentration of test samples at 500 nM). […] Medium was discarded, plates were washed once with 200 μL DPBS, stained with 50 μL of 0.2% Crystal Violet solution at room temperature for 15 min, and then washed extensively with tap water. Plates were air-dried, and Crystal Violet was dissolved with 200 μL of 1% SDS solution. Plates were read at 570 nm. Data was analyzed using GraphPad Prism 6. Assays were performed using a seeding density of 1,000 cells per well and compound exposure was for a total of 5 days. When shorter-term exposure was desired, medium containing cytotoxic agents was removed after 4 hours and replaced with fresh growth medium prior to 5-day incubation. For OVCAR3, CaOV3, and NCI-H2110, cells were seeded at 3,000 cells/well and incubated for 5 days with ADC.
# (§5) In vitro potency of prepared ADCs was assessed using a Crystal Violet assay as detailed in section 1.4.1.
# (§6) SJSA-1 cells are a human osteosarcoma tumor cell line that are negative for folate receptor alpha.
# (§7) Typically, test reagents were serially-diluted 1:4 in 2 mL deep-well dilution plates, starting at 1 μM (10 dilutions total). […] Plates were read at 570 nm. Data was analyzed using GraphPad Prism 6.
# [8] = system: OVCAR3 cells; assay: Crystal Violet cytotoxicity assay (Examples 1 and 2), OVCAR3; details: read-out: Cytotoxicity (IC50) OVCAR3; OVCAR3 cells; mean of replicate experiments, where performed
# Procedure: as §4, §6
# as §7, with “total). 100 μL of diluted samples were added to the cell plates (starting concentration of test samples at 100 nM).” for “total).”
# [9] = system: NCI-H2110 cells; details: read-out: IC50 on NCI-H2110; Example 1
# Procedure: as §4, §6
# (§8) Typically, test reagents were serially-diluted 1:4 in 2 mL deep-well dilution plates, starting at 1 μM (10 dilutions total). 100 μL of diluted samples were added to the cell plates (starting concentration of test samples at 100 nM). […] Medium was discarded, plates were washed once with 200 μL DPBS, stained with 50 μL of 0.2% Crystal Violet solution at room temperature for 15 min, and then washed extensively with tap water. Plates were air-dried, and Crystal Violet was dissolved with 200 μL of 1% SDS solution. Plates were read at 570 nm. Data was analyzed using GraphPad Prism 6.
# [10] = system: SJSA-1 cells; assay: Serum stability assay, cytotoxicity readout on SJSA-1
# Procedure: as §2, §3
# [11] = system: SJSA-1 cells; assay: Crystal Violet cytotoxicity assay (Examples 1 and 2), SJSA-1
# Procedure: as §4, §5, §6, §8
# [12] = read-out: Cell-based cytotoxicity assay, EC50, Human Serum, 0 hr-PBS
# [13] = read-out: Cell-based cytotoxicity assay, EC50, Human Serum, 0 hr-Serum
# [14] = read-out: Cell-based cytotoxicity assay, EC50, Human Serum, 4 hr at 37° C.
# [15] = read-out: Cell-based cytotoxicity assay, EC50, Human Serum, 24 hr at 37° C.
# [16] = read-out: Cell-based cytotoxicity assay, EC50, Mouse Serum, 0 hr-Serum
# [17] = read-out: Cell-based cytotoxicity assay, EC50, Mouse Serum, 4 hr at 37° C.
# [18] = read-out: Cell-based cytotoxicity assay, EC50, Mouse Serum, 24 hr at 37° C.
# [19] = read-out: Cell-based cytotoxicity assay, EC50, Mouse Serum, 48 hr at 37° C.
# [20] = read-out: Cell-based cytotoxicity assay, EC50, PBS, 0 hr-PBS
# [21] = read-out: Cell-based cytotoxicity assay, EC50, PBS, 0 hr-Serum
# [22] = read-out: Cell-based cytotoxicity assay, EC50, PBS, 4 hr at 37° C.
# [23] = read-out: Cell-based cytotoxicity assay, EC50, PBS, 24 hr at 37° C.
# [24] = read-out: Cell-based cytotoxicity assay, EC50, PBS, 48 hr at 37° C.
# Recombinant human folate receptor alpha, sequence (P15328 25-234): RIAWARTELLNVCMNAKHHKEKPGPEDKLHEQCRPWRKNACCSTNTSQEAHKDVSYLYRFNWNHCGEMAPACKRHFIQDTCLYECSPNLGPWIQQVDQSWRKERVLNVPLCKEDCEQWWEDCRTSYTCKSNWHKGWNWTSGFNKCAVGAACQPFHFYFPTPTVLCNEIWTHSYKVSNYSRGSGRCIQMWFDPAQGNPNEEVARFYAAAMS
substance,measurement,setting,value
MORAb003-DBCO-PEG2 eribulin,IC50,[1],> 100 nM
same,"Antigen Binding ELISA, EC50",[2],0.0191 µg/mL
same,IC50,[3],38.1 nM
same,IC50,[4],4.25 nM
MORAb003-DBCO-PEG4 VCP eribulin,IC50,[1],> 100 nM
same,"Antigen Binding ELISA, EC50",[2],0.016 µg/mL
same,IC50,[3],4.28 nM
same,IC50,[4],0.038 nM
MORAb003-DBCO-PEG4 eribulin,IC50,[1],> 100 nM
same,"Antigen Binding ELISA, EC50",[2],0.0133 µg/mL
same,IC50,[3],46.3 nM
same,IC50,[4],1.32 nM
MORAb003-PEG2-eribulin,IC50,[1],> 100 nM
same,"Antigen Binding ELISA, EC50",[2],0.00696 µg/mL
same,IC50,[3],38.3 nM
same,IC50,[4],0.33 nM
MORAb003-PEG4-eribulin,SEC-HPLC Analysis % Frag.,[5],0%
same,SEC-HPLC Analysis % Monomer,[5],89.76%
same,IC50,[1],> 100 nM
same,"Antigen Binding ELISA, EC50",[2],0.00931 µg/mL
same,IC50,[3],21.6 nM
same,IC50,[4],0.277 nM
MORAb-003-PEG-pAB-duostatin 3 [M-0285],EC50,[6]; [12],0.089 nM
same,EC50,[6]; [13],0.078 nM
same,EC50,[6]; [14],0.075 nM
same,EC50,[6]; [15],0.074 nM
same,EC50,[6]; [16],0.049 nM
same,EC50,[6]; [17],0.049 nM
same,EC50,[6]; [18],0.044 nM
same,EC50,[6]; [19],0.051 nM
same,EC50,[6]; [20],0.074 nM
same,EC50,[6]; [21],0.063 nM
same,EC50,[6]; [22],0.065 nM
same,EC50,[6]; [23],0.059 nM
same,EC50,[6]; [24],0.043 nM
same,"cytotoxicity and specificity on IGROV1 cell line, in words","[7]; Example 1 screening, IGROV1 versus SJSA-1",specific cytotoxicity
same,IC50,"[7]; read-out: Cytotoxicity (IC50) IGROV1, IGROV1 cells, mean of replicate experiments, where performed",0.3 nM
same,IC50,[8],8.8 nM
same,IC50,[9],14 nM
same,EC50,[10]; [12],> 10 nM
same,EC50,[10]; [13],> 10 nM
same,EC50,[10]; [14],> 10 nM
same,EC50,[10]; [15],> 10 nM
same,EC50,"[10]; read-out: Cell-based cytotoxicity assay, EC50, Human Serum, 48 hr at 37° C.",> 10 nM
same,EC50,"[10]; read-out: Cell-based cytotoxicity assay, EC50, Mouse Serum, 0 hr-PBS",> 10 nM
same,EC50,[10]; [16],> 10 nM
same,EC50,[10]; [17],> 10 nM
same,EC50,[10]; [18],> 10 nM
same,EC50,[10]; [19],> 10 nM
same,EC50,[10]; [20],> 10 nM
same,EC50,[10]; [21],> 10 nM
same,EC50,[10]; [22],> 10 nM
same,EC50,[10]; [23],> 10 nM
same,EC50,[10]; [24],> 10 nM
same,"killing of FR-negative SJSA-1 cells (off-target), in words",[11]; Example 1 screening,little cytotoxicity
same,IC50,"[11]; read-out: Cytotoxicity (IC50) SJSA-1, SJSA-1 cells, mean of replicate experiments, where performed",> 100 nM
